Target: amino-terminal ∼1400 amino-acid segment of human MUC2 (human)
Experiment: western blot of disulfide-bonded dimers

Substance: amino-terminal ∼1400 amino-acid segment of human MUC2 (domain or fragment)
- stoichiometry N: 2

From publication doi:10.1101/2022.05.03.490496
